Assay results reported in patent US20130005646A1 (Novo Nordisk, published 2013).
Like-named read-outs stand apart in the source and are kept apart here. Starred links: 1 amine or outer side, 2 acyl side, 3 side chain; linkers in the order of their positions; H or OH if unused. Positions of bridges follow the written chain, without caps; N, C: chain ends. *: point of attachment. C20 diacid = O=C(O)CCCCCCCCCCCCCCCCCCC(=O)*; γGlu = O=C(O)[C@H](CCC(=O)[*:2])N[*:1]

T1: human amylin 3(a) receptor (human calcitonin receptor co-expressed with RAMP-3) (human) (UniProt P30988)
T1 sequence (looked up) 1: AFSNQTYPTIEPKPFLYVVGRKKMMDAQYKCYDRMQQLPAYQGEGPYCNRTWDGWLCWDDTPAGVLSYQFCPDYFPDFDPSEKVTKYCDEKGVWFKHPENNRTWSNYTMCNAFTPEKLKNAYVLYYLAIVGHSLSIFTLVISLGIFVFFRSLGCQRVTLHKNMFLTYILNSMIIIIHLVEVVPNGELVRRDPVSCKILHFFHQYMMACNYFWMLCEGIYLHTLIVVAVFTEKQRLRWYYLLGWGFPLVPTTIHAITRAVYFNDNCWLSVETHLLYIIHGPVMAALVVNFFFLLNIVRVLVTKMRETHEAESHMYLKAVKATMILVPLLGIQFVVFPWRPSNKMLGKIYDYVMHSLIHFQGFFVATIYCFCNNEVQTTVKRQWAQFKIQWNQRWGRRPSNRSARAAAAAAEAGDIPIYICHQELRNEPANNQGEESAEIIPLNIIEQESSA
T1 sequence (looked up) 2: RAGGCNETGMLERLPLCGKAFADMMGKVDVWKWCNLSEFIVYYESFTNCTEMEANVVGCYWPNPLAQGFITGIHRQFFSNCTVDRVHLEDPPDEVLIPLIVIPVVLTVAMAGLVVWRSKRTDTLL

T2: human amylin 3(a) receptor (human calcitonin receptor + RAMP-3) (human) (UniProt P30988)
T2 sequence (looked up) 1: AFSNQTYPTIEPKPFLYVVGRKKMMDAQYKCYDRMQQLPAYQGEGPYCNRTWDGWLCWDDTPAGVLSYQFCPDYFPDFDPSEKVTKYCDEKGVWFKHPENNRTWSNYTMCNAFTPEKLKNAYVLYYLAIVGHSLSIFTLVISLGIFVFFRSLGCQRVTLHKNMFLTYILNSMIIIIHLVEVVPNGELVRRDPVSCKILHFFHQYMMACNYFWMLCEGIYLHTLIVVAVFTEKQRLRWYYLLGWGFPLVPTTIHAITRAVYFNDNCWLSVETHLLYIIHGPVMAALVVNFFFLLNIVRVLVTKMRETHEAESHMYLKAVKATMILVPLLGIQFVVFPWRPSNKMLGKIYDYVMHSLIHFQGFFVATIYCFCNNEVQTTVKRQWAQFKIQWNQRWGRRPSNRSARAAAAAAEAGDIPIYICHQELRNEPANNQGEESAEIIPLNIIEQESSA
T2 sequence (looked up) 2: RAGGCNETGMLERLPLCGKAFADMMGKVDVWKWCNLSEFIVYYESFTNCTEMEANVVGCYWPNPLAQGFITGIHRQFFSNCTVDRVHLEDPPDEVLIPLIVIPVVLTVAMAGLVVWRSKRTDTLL

T3: human amylin 3(a) receptor (human calcitonin receptor with RAMP-3) (human) (UniProt P30988)
T3 sequence (looked up) 1: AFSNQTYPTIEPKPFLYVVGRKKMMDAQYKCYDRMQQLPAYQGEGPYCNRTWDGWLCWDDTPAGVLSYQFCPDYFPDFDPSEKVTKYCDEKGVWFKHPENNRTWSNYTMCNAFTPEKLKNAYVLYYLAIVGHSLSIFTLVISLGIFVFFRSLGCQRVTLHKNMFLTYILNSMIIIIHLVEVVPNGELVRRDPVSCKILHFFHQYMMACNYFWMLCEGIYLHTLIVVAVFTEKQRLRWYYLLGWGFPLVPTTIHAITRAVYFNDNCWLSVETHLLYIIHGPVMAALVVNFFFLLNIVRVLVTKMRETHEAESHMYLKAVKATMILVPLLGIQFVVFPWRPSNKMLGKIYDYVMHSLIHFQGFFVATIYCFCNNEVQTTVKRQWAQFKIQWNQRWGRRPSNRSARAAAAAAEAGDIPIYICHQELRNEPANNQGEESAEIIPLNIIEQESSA
T3 sequence (looked up) 2: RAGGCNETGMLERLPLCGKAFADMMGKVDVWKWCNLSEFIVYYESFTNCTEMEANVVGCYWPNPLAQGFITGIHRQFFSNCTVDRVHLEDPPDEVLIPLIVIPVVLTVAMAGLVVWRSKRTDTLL

T4: human calcitonin (a) receptor (human) (UniProt P30988)
T4 sequence (looked up): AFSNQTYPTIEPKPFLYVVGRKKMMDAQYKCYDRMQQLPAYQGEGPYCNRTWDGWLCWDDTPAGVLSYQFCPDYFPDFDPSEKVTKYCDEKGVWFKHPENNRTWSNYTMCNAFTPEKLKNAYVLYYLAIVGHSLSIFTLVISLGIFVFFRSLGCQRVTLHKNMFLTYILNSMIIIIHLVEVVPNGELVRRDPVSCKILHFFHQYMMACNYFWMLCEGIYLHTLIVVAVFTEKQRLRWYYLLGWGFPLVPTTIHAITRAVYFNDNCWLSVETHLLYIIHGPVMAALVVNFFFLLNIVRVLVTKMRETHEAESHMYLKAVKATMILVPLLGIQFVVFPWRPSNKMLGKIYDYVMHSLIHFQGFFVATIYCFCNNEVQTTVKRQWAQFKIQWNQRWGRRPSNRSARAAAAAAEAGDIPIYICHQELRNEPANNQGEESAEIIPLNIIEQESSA

T5: human amylin receptor (human, UniProt P30988 25-474; O60896 24-148, limits assumed)
T5 sequence (looked up) 1: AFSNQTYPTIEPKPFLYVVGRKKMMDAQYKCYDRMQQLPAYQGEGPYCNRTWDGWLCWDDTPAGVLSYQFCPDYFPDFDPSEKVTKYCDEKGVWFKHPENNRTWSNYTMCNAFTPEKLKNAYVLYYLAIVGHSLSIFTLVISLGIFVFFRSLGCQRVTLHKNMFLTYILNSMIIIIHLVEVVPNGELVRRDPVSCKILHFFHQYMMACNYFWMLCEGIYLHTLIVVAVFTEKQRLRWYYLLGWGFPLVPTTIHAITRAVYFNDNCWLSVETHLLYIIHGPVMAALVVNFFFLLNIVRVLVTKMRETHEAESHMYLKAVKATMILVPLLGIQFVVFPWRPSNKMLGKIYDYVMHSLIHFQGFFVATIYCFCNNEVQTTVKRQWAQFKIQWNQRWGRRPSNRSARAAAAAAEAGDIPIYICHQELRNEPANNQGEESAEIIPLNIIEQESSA
T5 sequence (looked up) 2: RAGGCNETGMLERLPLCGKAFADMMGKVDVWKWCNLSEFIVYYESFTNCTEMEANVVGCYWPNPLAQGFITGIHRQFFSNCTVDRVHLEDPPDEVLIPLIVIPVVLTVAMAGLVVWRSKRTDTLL

T6: Amylin receptor human (human, UniProt P30988 25-474; O60896 24-148, limits assumed)
T6 sequence (looked up) 1: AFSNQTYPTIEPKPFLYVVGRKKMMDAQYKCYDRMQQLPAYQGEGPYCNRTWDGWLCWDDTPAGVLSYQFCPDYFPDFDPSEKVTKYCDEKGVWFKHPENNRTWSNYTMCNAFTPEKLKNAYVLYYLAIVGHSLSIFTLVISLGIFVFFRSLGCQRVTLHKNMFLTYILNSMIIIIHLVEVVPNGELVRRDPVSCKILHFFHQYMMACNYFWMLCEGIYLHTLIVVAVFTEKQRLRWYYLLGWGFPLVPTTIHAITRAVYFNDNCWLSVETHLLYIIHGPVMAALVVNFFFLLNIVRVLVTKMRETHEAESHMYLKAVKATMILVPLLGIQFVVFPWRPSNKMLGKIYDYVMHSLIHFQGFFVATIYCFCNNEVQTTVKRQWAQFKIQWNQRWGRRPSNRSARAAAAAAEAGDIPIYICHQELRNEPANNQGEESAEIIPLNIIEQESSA
T6 sequence (looked up) 2: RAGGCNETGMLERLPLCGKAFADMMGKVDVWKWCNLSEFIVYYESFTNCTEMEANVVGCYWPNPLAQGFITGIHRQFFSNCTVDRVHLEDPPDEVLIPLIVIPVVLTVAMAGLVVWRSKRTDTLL


Legend:
Assay in all cases: cell-based or functional assay
[1] = biological target: T1, human amylin 3(a) receptor (human calcitonin receptor co-expressed with RAMP-3) (human)
[2] = biological target: T2, human amylin 3(a) receptor (human calcitonin receptor + RAMP-3) (human)
[3] = biological target: T3, human amylin 3(a) receptor (human calcitonin receptor with RAMP-3) (human)
[4] = biological target: T4, human calcitonin (a) receptor (human)
[5] = biological target: T1, human amylin 3(a) receptor (human calcitonin receptor co-expressed with RAMP-3) (human); remark: listed apart in the source
human amylin receptor = biological target: T5, human amylin receptor
Amylin receptor human = biological target: T6, Amylin receptor human

Binder	Amylin receptor human EC50 (pM) [1]	Amylin receptor human EC50 [2]	Amylin receptor human EC50 (pM) [3]	CTa receptor human EC50 [4]	CTa receptor human EC50 (pM) [4]	Amylin receptor human EC50 (pM) [5]	Amylin receptor human EC50 (pM) (human amylin receptor)	Amylin receptor human EC50 (pM) (Amylin receptor human)
{C20 diacid-γGlu}-SSGSSGCNTATCATQRLAEFLHHSSNNFGPILPPTNVGSNTY-NH2 (disulfide 7-12)	253 pM	0.253 nM	253 pM	0.432 nM	432 pM	–	–	–
{C20 diacid}-EERECNTATCATQRLAEFLHHSSNNFGPILPPTNVGSNTP-NH2 (disulfide 5-10 (inferred)) [N-alpha-(19-carboxynonadecanoyl)-Glu-Glu-Arg-[Glu1,Glu14,His17,Pro37]-pramlintide]	288 pM	0.288 nM	288 pM	0.443 nM	443 pM	288 pM	288 pM	288 pM
